A word on the Kd: it is the concentration at which binding is half-saturated. A low value points to tighter binding. The stoichiometry N is the number of molecules, sites or subunits per partner or assembly.

First the molecules themselves.
B1: 1210_H.N31_Srev (antibody, V domains shown)
VH: QVQLVESGGGVVQPGRSLRLSCAASGFTFSSYGMHWVRQAPGKGLEWVAVIWYDGSKKYYADSVKGRFTISRDNSKNTLYLQMNSLRAEDTAVYYCARVRDSSDYYGDAFDIWGQGTMVTVSS
VL: DIQMTQSPSTLSASVGDRVTITCRASQSISSWLAWYQQKPGKAPKLLIYKASNLESGVPLRFSGSGSGTEFTLTISSLQPDDFATYYCQQYNNYWTFGQGTKVEIK
B2: 2163_KN (antibody, V domains shown)
VH: QVQLVESGGGVVQPGRSLRLSCAASGFTFSSYGMHWVRQAPGKGLEWVAVIWYDGSKKYYADSVKGRFTISRDNSKNTLYLQMNSLRAEDTAVYYCARVQTTTGGGSCCPFDYWGQGTLVTVSS
VL: B1 VL with T10S, N53S, L60S
B3: 2163 (antibody, V domains shown)
VH: B2 VH with K57N
VL: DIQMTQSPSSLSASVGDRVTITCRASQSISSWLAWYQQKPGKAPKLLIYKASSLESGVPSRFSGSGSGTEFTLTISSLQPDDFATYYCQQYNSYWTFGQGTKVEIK
B4: 2163_H.V50_Imut (antibody, V domains shown)
VH: B2 VH with V50I, K57N
VL: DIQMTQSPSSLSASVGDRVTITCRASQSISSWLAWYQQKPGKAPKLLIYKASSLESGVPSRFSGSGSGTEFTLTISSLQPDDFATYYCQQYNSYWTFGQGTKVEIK
B5: 2163_H.N56_Kmut (antibody, V domains shown)
VH: B2 VH
VL: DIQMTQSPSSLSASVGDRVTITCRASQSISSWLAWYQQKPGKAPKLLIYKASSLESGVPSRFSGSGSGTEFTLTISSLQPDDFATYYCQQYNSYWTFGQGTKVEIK
B6: 2163_H.S31_Nmut (antibody, V domains shown)
VH: B2 VH with S31N, K57N
VL: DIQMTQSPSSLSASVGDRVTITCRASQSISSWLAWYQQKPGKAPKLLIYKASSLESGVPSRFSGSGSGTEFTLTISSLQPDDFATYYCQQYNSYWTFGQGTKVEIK
B7: 1210_YY IgG (1210 H.D100Ymut_K.N92Ymut) (antibody, V domains shown)
VH: B1 VH with S31N, D104Y
VL: B1 VL with N92Y
notes: IgG1; source: HEK293F, purified (Protein G Sepharose)
B8: 1210 IgG (antibody, V domains shown)
VH: B1 VH with S31N
VL: B1 VL
notes: as for B7
B9: 1210 antigen-binding fragment (Fab) (Fab, V domains shown)
VH: B1 VH with S31N
VL: B1 VL
B10: 1210_H.K56_N^rev (antibody, V domains shown)
VH: B1 VH with S31N, K57N
VL: B1 VL
B11: 1210_K. N93_S^rev (antibody, V domains shown)
VH: B1 VH with S31N
VL: B1 VL with N93S
B12: 1210 Fab (recombinant Fab for ITC) (Fab, V domains shown)
VH: B1 VH with S31N
VL: B1 VL
notes: source: HEK293F, transiently expressed, purified (KappaSelect, SEC)
B13: 1210 germline antibody Fab (recombinant Fab for ITC) (Fab, V domains shown)
VH: B1 VH with K57N
VL: not shown
notes: as for B12
B14: 1210 H.D100Ymut_K.N92Ymut Fab (recombinant Fab for ITC) (Fab, V domains shown)
VH: B1 VH with S31N, D104Y
VL: B1 VL with N92Y
notes: as for B12
B15: 1210_H.K56_Nrev_K.N93_Srev Fab (recombinant Fab for ITC) (Fab, V domains shown)
VH: B1 VH with S31N, K57N
VL: B1 VL with N93S
notes: as for B12

Changes are numbered by the printed parent chain.

The first assay concerns the target T1, minimal NANP3 peptide (Plasmodium falciparum (isolate NF54).).
T1 chain: NANPNANPNANP
Experiment: not given
Settings: not given
In the case of B1, the binding result is “binds”.

For B2, the binding result is given as “binds”. Still for that read-out and setting: the result for B3 reads “binds”; that for B4, “binds”. Same read-out and setting: as for B5, the entry is “binds”. The same measure, in the same setting: as for B6, the entry is “binds”.

A further assay deals with T2, full length PfCSP (NF54 strain) (Plasmodium falciparum (isolate NF54)., UniProt P19597).
T2 construct: also called NF54 PfCSP; circumsporozoite protein; source: HEK293F, transient expression, purified (HisTrap Ni/NTA, SEC)
T2 sequence (P19597 19-374): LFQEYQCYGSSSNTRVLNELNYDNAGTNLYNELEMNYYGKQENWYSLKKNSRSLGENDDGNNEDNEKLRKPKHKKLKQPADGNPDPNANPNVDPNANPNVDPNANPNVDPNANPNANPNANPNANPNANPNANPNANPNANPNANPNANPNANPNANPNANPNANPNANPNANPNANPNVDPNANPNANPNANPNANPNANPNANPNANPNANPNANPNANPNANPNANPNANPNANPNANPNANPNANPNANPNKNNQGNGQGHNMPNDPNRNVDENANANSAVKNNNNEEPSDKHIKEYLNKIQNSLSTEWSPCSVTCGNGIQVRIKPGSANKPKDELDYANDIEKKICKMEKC
The experiment in a line: BLI. The conditions noted are these: both partners purified.
In turn, B7 yielded a Kd of 0.66 nM. That is a sub-nanomolar value.

On to B8, for which the dissociation constant (Kd) was below 0.001 nM.

Another assay deals with T3, full-length PfCSP with 38 NANP repeats (Plasmodium falciparum (isolate NF54)., UniProt P19597).
T3 construct: also called circumsporozoite protein; NF54
T3 sequence (P19597 19-374): as above
Put plainly: SEC-MALS; 1210 Fab–PfCSP complex; molar mass from two measurements. The settings on record: both partners purified. (In general: Size exclusion chromatography separates by hydrodynamic size, large species first.)
Consider B9, for which the “stoichiometry N” value was around 12 Fabs per PfCSP.

Another assay deals with T1, minimal NANP3 peptide. The experiment in a line: SPR; independent NANP3 SPR affinity measurements of original and mutated antibodies; who was immobilised is not given in the source. The settings on record: both partners purified. In general terms: In SPR one partner is held on a chip, and binding of the other changes the refractive index at the surface.
Consider B10, for which the binding result is “binds”.

With B11, the binding result is on record as “binds”.

For the next assay, the target named is T4, NANP3 peptide (minimal NANP repeat peptide) (Plasmodium falciparum (isolate NF54).).
T4 construct: source: bought: PSL GmbH, Heidelberg
T4 chain: NANPNANPNANP
Put plainly: ITC. The conditions noted are these: both partners purified.
As to B12, the “stoichiometry N” value amounted to 0.73. On to B13, for which the “stoichiometry N” value was 0.92.

As for B14, the “stoichiometry N” value was 0.88.

Consider B15, for which the “stoichiometry N” value was determined as 0.94.

Another assay concerns the target T5, NANP5 peptide (NANP 5-mer peptide of the PfCSP repeat) (Plasmodium falciparum (isolate NF54).).
T5 construct: source: bought: Alpha Diagnostic International
T5 chain: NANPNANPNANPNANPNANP
Put plainly: ITC. The settings on record: both partners purified.
For the molecule B12, the “stoichiometry N” value turned out to be 1.8. Same read-out and setting: as for B13, the figure is 1.9; as for B14, 2.1; as for B15, 1.7.

These data come from paper PMC6420115 (Science (New York, N.y.), 2018).
